Assay results published in the supplement of paper PMC10126150.
± gives the standard deviation of the averaged measurements.

system: ATP; assay: switch fluorescence ratio, 500 uM ATP over buffer (Cy3 cluster intensity, sum of 5 cycles each) (fold (ratio)); higher = stronger signal-on switching upon ATP binding; sequences stand for … in TCGTCGGCAGCGTCAGATGTGTATAAGAGACAGTTTTTTTTTTTTTTTTTTTTTTTTT…TC; conditions: aptamer strand: ATP DNA aptamer (quencher-CACCTGGGGGAGTATTGCGGAGGAAGG + anchor), 100 nM annealed; ATP concentration: 500 uM
Method in brief: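 Values give the fluorescence ratio for each switch-domain sequence, averaged from per-cluster ratios of summed target-cycle to summed buffer-cycle Cy3 intensity. The Cy3-labelled switching-strand clusters sat on a modified Illumina MiSeq flow-cell, were annealed to 100 nM quencher-labelled ATP aptamer, and were imaged in selection buffer, then after 15 min with 500 uM ATP at 22 °C. Five cycles ran with NaOH stripping and re-annealing between them, and clusters outside 100-1000 RFU were excluded.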
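Also: ATP exposure 15 min at 22 °C before imaging.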

| Sequence | switch fluorescence ratio |
| --- | --- |
| CATAGGTCAT | 1.03 ± 0.058 |
| CATAGTATGT | 0.973 ± 0.067 |
| CATAGTATTA | 0.958 ± 0.04 |
| CATAGTCCTC | 0.964 ± 0.041 |
| CATAGTTACG | 0.994 ± 0.047 |
| CATAGTTCGT | 0.988 ± 0.016 |
| CATATAAGTA | 0.9809 ± 0.0025 |
| CATATGGGGT | 1 ± 0.038 |
| CATATGTCTG | 0.994 ± 0.015 |
| CATATTGGGG | 0.963 ± 0.022 |
| CATATTTAGG | 0.949 ± 0.028 |
| CATCAAGGTA | 1.04 ± 0.025 |
| CATCAGGGCT | 1.06 ± 0.051 |
| CATCATGTCT | 1.01 ± 0.03 |
| CATCCCTCAA | 1.86 ± 0.72 |
| CATCCGTCCG | 1.353 ± 0.0037 |
| CATCGAGTTC | 1.05 ± 0.025 |
| CATCGCATTT | 2.32 ± 0.91 |
| CATCGGGGTT | 1.01 ± 0.002 |
| CATCGTTGGT | 0.999 ± 0.0029 |
| CATCTAGCAC | 2.63 ± 0.42 |
| CATCTGCGTT | 1.58 ± 0.11 |
| CATGAATCTA | 0.98017 ± 0.00042 |
| CATGAATTCA | 1.04 ± 0.033 |
| CATGAATTGT | 0.974 ± 0.019 |

| Sequence | switch fluorescence ratio |
| --- | --- |
| CATGAGTTGT | 1 ± 0.025 |
| CATGATTCA | 0.998 ± 0.041 |
| CATGATTTAT | 1 ± 0.054 |
| CATGCATGTT | 1.01 ± 0.029 |
| CATGCCAGAA | 0.981 ± 0.015 |
| CATGCCTTGT | 1.009 ± 0.0059 |
| CATGCGGATG | 1.001 ± 0.0056 |
| CATGCGGCCG | 0.992 ± 0.02 |
| CATGCTTCAT | 0.988 ± 0.017 |
| CATGGAAGGG | 0.9699 ± 0.0068 |
| CATGGAATAG | 1.07 ± 0.011 |
| CATGGAGAGG | 1.02 ± 0.0086 |
| CATGGATTAA | 1 ± 0.011 |
| CATGGCAACG | 0.993 ± 0.038 |
| CATGGGAAAT | 1.008 ± 0.005 |
| CATGGGCAGC | 0.997 ± 0.016 |
| CATGGGCCGT | 1.02 ± 0.035 |
| CATGGGGCTA | 1.02 ± 0.031 |
| CATGGGGTAA | 0.99 ± 0.014 |
| CATGGGGTGG | 0.9671 ± 0.0014 |
| CATGGGGTGT | 1.01 ± 0.013 |
| CATGGGTGGG | 0.994 ± 0.028 |
| CATGGTATTT | 0.9797 ± 0.0095 |
| CATGGTTTTC | 0.962 ± 0.04 |
| CATGTAAGGA | 0.985 ± 0.015 |

| Sequence | switch fluorescence ratio |
| --- | --- |
| CATGTAAGTT | 0.986 ± 0.018 |
| CATGTAGCGT | 1 ± 0.027 |
| CATGTATAGG | 0.987 ± 0.032 |
| CATGTATGT | 1.07 ± 0.03 |
| CATGTCAAGA | 1.01 ± 0.036 |
| CATGTGAAGC | 1.014 ± 0.0072 |
| CATGTGAAGG | 0.966 ± 0.037 |
| CATGTGGACG | 1.1 ± 0.02 |
| CATGTTAGGG | 1.01 ± 0.033 |
| CATGTTGAGC | 0.9959 ± 0.0081 |
| CATGTTTTGT | 1.02 ± 0.017 |
| CATGTTTTTC | 0.982 ± 0.033 |
| CATTAAATTT | 1.02 ± 0.011 |
| CATTAAGGAG | 1.06 ± 0.092 |
| CATTACAGCC | 1.09 ± 0.028 |
| CATTACTTTT | 1.01 ± 0.014 |
| CATTAGCGCA | 1.047 ± 0.0084 |
| CATTAGTGGG | 0.988 ± 0.011 |
| CATTATGTGA | 0.987 ± 0.051 |
| CATTATTATG | 1.03 ± 0.036 |
| CATTATTTCA | 0.997 ± 0.04 |
| CATTCGTCGG | 1.044 ± 0.0031 |
| CATTGAATAC | 1.36 ± 0.061 |
| CATTGAGTGC | 1.034 ± 0.0017 |
| CATTGATATG | 0.9912 ± 0.0091 |

| Sequence | switch fluorescence ratio |
| --- | --- |
| CATTGCGAGG | 1.02 ± 0.039 |
| CATTGCTTGG | 1.039 ± 0.0012 |
| CATTGGAGGA | 1.018 ± 0.0011 |
| CATTGGAGTC | 0.998 ± 0.043 |
| CATTGGCGTA | 1.02 ± 0.023 |
| CATTGGTGTG | 0.985 ± 0.047 |
| CATTGTGGTA | 1.014 ± 0.0033 |
| CATTGTTGTT | 1.01 ± 0.0098 |
| CATTGTTTGA | 1.03 ± 0.021 |
| CATTTACACT | 1.05 ± 0.059 |
| CATTTAGGAT | 0.985 ± 0.018 |
| CATTTAGGCT | 0.9997 ± 0.0058 |
| CATTTCACGC | 1.0996 ± 0.00041 |
| CATTTCGAAC | 1.02 ± 0.027 |
| CATTTGGCGG | 1 ± 0.013 |
| CATTTGGGCC | 0.999 ± 0.017 |
| CATTTGTCCG | 1.01 ± 0.071 |
| CATTTGTTCT | 1 ± 0.049 |
| CATTTTATTT | 0.996 ± 0.032 |
| CATTTTGATG | 0.966 ± 0.011 |
| CATTTTGTAT | 0.998 ± 0.013 |
| CATTTTTGGC | 1.03 ± 0.027 |
| CATTTTTTGG | 0.998 ± 0.019 |
| CATTTTTTGT | 1.027 ± 0.0052 |
| CATTTTTTTG | 1 ± 0.017 |
